A word on the Kd: it is the constant that tells how readily two partners part at equilibrium. As usually defined, the IC50 is the concentration that inhibits the measured activity by half.

Experimental findings from US20120308575A1 are described below.

Experiment [1] addresses recombinant human TNF-α (Product 210-TA-050, R&D) (human) (UniProt P01375). Description: cell-based or functional assay.
The target is the same in experiment [2]. Description: SPR, Biacore T100, TNFα amine-coupled to CM5 chip, antibody in flow. A general note: In SPR one partner is held on a chip, and binding of the other changes the refractive index at the surface.
The target is the same in experiment [3]. Briefly: flow cytometry competition: FITC-TNF-α (100 ng/ml) on U937 cells, antibody titrated; average of 3. Background: In flow cytometry, cells or beads pass a laser one at a time.
For experiment [4] the target is unchanged. Briefly: flow cytometry competition: FITC-TNF-α (100 ng/ml) on U937 cells, antibody titrated; experiment 1.
The target is the same in experiment [5]. Description: flow cytometry competition: FITC-TNF-α (100 ng/ml) on U937 cells, antibody titrated; experiment 2.
Experiment [6] has the same target. Description: flow cytometry competition: FITC-TNF-α (100 ng/ml) on U937 cells, antibody titrated; experiment 3.
Experiment [7] has the same target. Description: competition ELISA: biotin-TNF-α (10 ng/ml) on coated P75 receptor-Fc, antibody titrated; average of 3. A general note: In an ELISA, binding on a coated surface is turned into a signal by an enzyme label.
Experiment [8] has the same target. Briefly: competition ELISA: biotin-TNF-α (10 ng/ml) on coated P75 receptor-Fc, antibody titrated; experiment 1.
The target is the same in experiment [9]. Briefly: competition ELISA: biotin-TNF-α (10 ng/ml) on coated P75 receptor-Fc, antibody titrated; experiment 2.
For experiment [10] the target is unchanged. Briefly: competition ELISA: biotin-TNF-α (10 ng/ml) on coated P75 receptor-Fc, antibody titrated; experiment 3.

Chain of recombinant human TNF-α (Product 210-TA-050, R&D) (human) (P01375 77-233 limits assumed): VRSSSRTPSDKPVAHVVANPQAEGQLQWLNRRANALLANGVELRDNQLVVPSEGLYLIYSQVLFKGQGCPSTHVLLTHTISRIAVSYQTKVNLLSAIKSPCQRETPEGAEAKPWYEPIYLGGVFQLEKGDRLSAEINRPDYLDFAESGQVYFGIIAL

Turning to “fully human antibody adalimumab (Humira, D2E7, commercial product)”, in [1], the IC50 of resistance to TNF-α-mediated killing of L929 cells (MTS), average was found to be 316 ng/mL; the IC50 of resistance to TNF-α-mediated killing of L929 cells (MTS), experiment 1 was found to be 296 ng/mL; the IC50 of resistance to TNF-α-mediated killing of L929 cells (MTS), experiment 2 amounted to 335 ng/mL; the IC50 of resistance to TNF-α-mediated killing of L929 cells (MTS), experiment 3 is 318 ng/mL. In [1], the Increase in Body Temperature of Rabbits (rhTNF-α 5 µg/kg i.v. mixed with antibody 500 µg/kg; 60 min) was 0 ° C, the Survival Status of Mice (rhTNF-α 1 µg + D-galactosamine 20 mg; antibody 1 µg i.p. 30 min before) turned out to be 20%, the Survival Status of Mice (rhTNF-α 1 µg + D-galactosamine 20 mg; antibody 2 µg i.p. 30 min before) stood at 40% and the Survival Status of Mice (rhTNF-α 1 µg + D-galactosamine 20 mg; antibody 4 µg i.p. 30 min before) was determined as 40%. For the same substance, in [1], the Survival Status of Mice (rhTNF-α 1 µg + D-galactosamine 20 mg; antibody 6 µg i.p. 30 min before) is 50% and the Survival Status of Mice (rhTNF-α 1 µg + D-galactosamine 20 mg; antibody 8 µg i.p. 30 min before) came out at 60%. For the same substance, the Kd in experiment [2] amounted to 0.63 nM. For the same substance, in [3], the 50% inhibitory concentration (IC50) was found to be 7.36 µg/mL. In experiment [4], the IC50 was 6.62 µg/mL. The IC50 in experiment [5] was found to be 8.03 µg/mL. For the same substance, the IC50 in [6] came out at 7.44 µg/mL. Besides, the IC50 in experiment [7] was found to be 2.35 µg/mL. Besides, in experiment [8], the 50% inhibitory concentration (IC50) was determined as 2.3 µg/mL. Besides, in experiment [9], the IC50 was 2.15 µg/mL. For the same substance, the IC50 in experiment [10] came to 2.59 µg/mL.
